From article PMC12796488, “Distinct structural features of Pseudomonas aeruginosa ATP synthase revealed by cryo-electron microscopy” (Nature Communications, 2025)

Target: the molecule itself
Assay: cryo-EM structure; purified F1Fo complex in digitonin; 10 mM MgADP and 230 uM compound #5 added, 1 h on ice before freezing; maps at 2.0-3.0 Å

B1: P. aeruginosa ATP synthase subunit c (natural protein, Pseudomonas aeruginosa, UniProt Q9HT15 1-85, looked up)
chain: METVVGLTAIAVALLIGLGALGTAIGFGLLGGKFLEGAARQPEMVPMLQVKMFIVAGLLDAVTMIGVGIALFFTFANPFVGQIAG
notes: ATP synthase subunit c of Pseudomonas aeruginosa, expressed from the whole operon (atpIBEFHAGDC) plasmid pASH20; A ring of ten copies in the cryo-EM maps; also called c subunit; c-ring; source: E. coli DK8, purified as part of the whole F1Fo complex (digitonin extraction, Talon resin, Superose 6 SEC); copies: 10
stoichiometry N: 10
